Assays:
human CCR8 (human) [1] = biological target: human CCR8 (human) (UniProt P51685); test: flow cytometry on lymphocytes from ovarian cancer ascites, 1 µg antibody
human CCR8 (human) [2] = biological target: human CCR8 (human) (UniProt P51685); test: flow cytometry on lymphocytes from ovarian cancer ascites, 0.1 µg antibody
human CCR8 (human) [3] = biological target: human CCR8 (human) (UniProt P51685); test: flow cytometry on lymphocytes from ovarian cancer ascites, 0.5 µg antibody
human CCR8 (human) [4] = biological target: human CCR8 (human) (UniProt P51685); test: cell-based or functional assay
human CCR8 (human) [5] = biological target: human CCR8 (human) (UniProt P51685); test: flow cytometry, hCCR8-transfected CHO-K1 cells

Positive cells (human CCR8 (human) [1]) [%] | Positive cells (human CCR8 (human) [2]) [%] | Positive cells (human CCR8 (human) [3]) [%] | EC80 of hCCL1, hCCR8 Gi2 BRET, HEK-293 in suspension (human CCR8 (human) [4]) [nM] | EC80 of hCCL1, hCCR8 Gi2 BRET, adherent HEK-293 (protocol #4) (human CCR8 (human) [4]) [nM] | % positive cells (human CCR8 (human) [5]) [%] | MFI fold change to isotype ctrl (human CCR8 (human) [5]) [fold] | Substance
5.06 | 2.94 | 3.81 |  |  |  |  | Isotype ctrl (antibody)
 |  |  | 6 | 0.6 |  |  | human CCL1 (from UniProt P22362 24-96) (ligand)
8.64 | 9.5 | 9.86 |  |  | 86.5 | 19.8 | murine anti-human CCR8 monoclonal antibody L263G8

Source: US20260132208A1
